The record followed here is patent US20210261665A1 (TAYU HUAXIA BIOTECH MEDICAL GROUP, published 2021).

One may read the Kd as the equilibrium constant for the complex coming apart. High values mean a looser complex, low ones a tighter complex. As a reminder, the koff is the rate constant with which the complex falls apart. As a reminder, the kon is the rate constant with which the complex forms.

In assay [1] the target is T1, human PD-1 on cells (human, UniProt Q15116 25-288). In words: cell-based or functional assay.
Assay [2] addresses T2, hPD-1 mIg fusion protein (human; mouse, UniProt Q15116 25-170).
T2 construct: extracellular domain; not shown: CH2-CH3 domain of mouse IgG2a heavy chain (plasmid pmIgG)
In words: SPR Biacore T100, hPD-1mIg immobilised by amine coupling, antibody as analyte. As for the experimental part:
Binding affinity and kinetics determination of the humanized antibodies: The binding affinity and kinetics of the humanized PD-1 mAbs interact with hPD-1 protein was assessed with Biacore T100 (GE Healthcare Life Sciences). […] Nine different concentrations were tested for each sample. Detailed binding kinetic parameters (association rate, Ka, dissociation rate, Kd, and affinity constant, KD) can be determined by full kinetic analysis.
In general terms: Surface plasmon resonance follows binding to a sensor surface in real time, without labels.

Assay [3] deals with T2, hPD-1 mIg fusion protein. In words: SPR Biacore T200, hPD-1 mIg immobilised at low level, antibody as analyte; reference pembrolizumab and nivolumab. As for the experimental part:
Antibody binding affinity and kinetics: The affinity and kinetics of theTY101 was analyzed using the Biacore T200 instrument (GE Healthcare Life Sciences) and compared with two commercial antibodies.

Assay [4] has as its target T1, human PD-1 on cells. In words: flow cytometry on CHO/hPD-1 cells, anti-mIgG-APC. How it is done: CHO/hPD-1 cells were incubated anti-PD-1 mAbs on ice. After incubation, the cells were washed and further incubated with anti-mIgG-APC (eBiosciences). Flow cytometry analysis was performed using a FACSVerse (BD Biosciences). […] These cells were also stained with their respective positive antibodies respectively as positive control.
On the technique in general: Flow cytometry measures light scatter and fluorescence of single cells or particles in a stream.

T2 sequence (Q15116 25-170): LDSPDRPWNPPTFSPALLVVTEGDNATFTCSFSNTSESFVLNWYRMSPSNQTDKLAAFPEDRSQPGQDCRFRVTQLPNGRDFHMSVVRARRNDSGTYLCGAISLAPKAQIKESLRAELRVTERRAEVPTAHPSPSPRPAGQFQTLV
T1 sequence (Q15116 25-288): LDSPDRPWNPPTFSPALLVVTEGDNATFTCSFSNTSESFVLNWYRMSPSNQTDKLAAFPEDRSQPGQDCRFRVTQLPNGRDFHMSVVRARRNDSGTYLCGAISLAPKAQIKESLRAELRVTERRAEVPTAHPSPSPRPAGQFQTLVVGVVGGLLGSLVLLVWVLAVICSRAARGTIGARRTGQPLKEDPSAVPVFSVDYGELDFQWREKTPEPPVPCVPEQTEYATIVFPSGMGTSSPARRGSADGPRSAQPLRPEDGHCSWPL

B1: Variant 3 (TY101) (antibody, V domains shown)
VH: EVQLVESGGGLVQPGGSLRLSCAASGFTFSSYTMSWVRQAPGKGLEWVSYISHGGGDTYYADSVKGRFTISRDNSKNTLYLQMNSLRAEDTAVYYCARHSGYERGYYYVMDYWGQGTLVTVSS
VL: DIQLTQSPDSLSVSLGERATINCKASESVDYYGFSFLNWFQQKPGQPPKLLIYAASNRQSGVPDRFSGSGSGTDFTLTISSLQAEDVAVYFCQQSKEVPWTFGQGTKLEIKR
notes: Humanized; VH variant a, VK variant c; Constant regions not spelled out; chimeric parent has human IgG4-S228P and human kappa; also called mutant combination 3
Take B1: the “EC50; luciferase RLU of Jurkat-PD1 cells stimulated with CHO-PD-L1 cells (PD-1/PD-L1 Blockade Bioassay)” value with human PD-1 on cells [1] turned out to be 0.224 µg/mL. In the assay with hPD-1 mIg fusion protein [2], this molecule showed a Kd of 96.3 pM, a koff of 2.33e-05 s⁻¹ and a kon of 242000 M⁻¹ s⁻¹. Also, in the assay with hPD-1 mIg fusion protein [3], the “fold slower dissociation rate Kd than the two commercial antibodies” value worked out at 10 fold.

B2: Murine Ab2 (antibody, mouse IgG1, V domains shown)
VH: QVQLQQSGAELARPGASVKMSCKASGYTFTSYTMHWVKQRPGQGLEWIGYINPTTGYTNYNQKFKDKATLTADKSSSTAYMQLSSLTSEDSAVYYCARDDAYYSGYWGQGTTLTVSS
VL: DIQMTQSPASLSVSVGETVTITCRASENIYSNLAWYRQKQGKSPQLLVYAAKNLADGVPSRFSGSGSGTQYSLKINSLQSEDFGSYYCQHFWGTPWTFGGGTKLEIKR
notes: also called anti-hPD-1 mAb 2
As for B2, the binding result with human PD-1 on cells [4] is “binds”.
